Results published in paper PMC9719539 (2022).
Read-outs that look alike come from different tables or passages of the source. Positions of bridges follow the written chain, without caps; N, C: chain ends. Non-standard residues stand in square brackets, D forms with d. No end group written: not given here.

B1: integrin αVβ3 on intact cells (receptor)
chain 1: FNLDVDSPAEYSGPEGSYFGFAVDFFVPSASSRMFLLVGAPKANTTQPGIVEGGQVLKCDWSSTRRCQPIEFDATGNRDYAKDDPLEFKSHQWFGASVRSKQDKILACAPLYHWRTEMKQEREPVGTCFLQDGTKTVEYAPCRSQDIDADGQGFCQGGFSIDFTKADRVLLGGPGSFYWQGQLISDQVAEIVSKYDPNVYSIKYNNQLATRTAQAIFDDSYLGYSVAVGDFNGDGIDDFVSGVPRAARTLGMVYIYDGKNMSSLYNFTGEQMAAYFGFSVAATDINGDDYADVFIGAPLFMDRGSDGKLQEVGQVSVSLQRASGDFQTTKLNGFEVFARFGSAIAPLGDLDQDGFNDIAIAAPYGGEDKKGIVYIFNGRSTGLNAVPSQILEGQWAARSMPPSFGYSMKGATDIDKNGYPDLIVGAFGVDRAILYRARPVITVNAGLEVYPSILNQDNKTCSLPGTALKVSCFNVRFCLKADGKGVLPRKLNFQVELLLDKLKQKGAIRRALFLYSRSPSHSKNMTISRGGLMQCEELIAYLRDESEFRDKLTPITIFMEYRLDYRTAADTTGLQPILNQFTPANISRQAHILLDCGEDNVCKPKLEVSVDSDQKKIYIGDDNPLTLIVKAQNQGEGAYEAELIVSIPLQADFIGVVRNNEALARLSCAFKTENQTRQVVCDLGNPMKAGTQLLAGLRFSVHQQSEMDTSVKFDLQIQSSNLFDKVSPVVSHKVDLAVLAAVEIRGVSSPDHVFLPIPNWEHKENPETEEDVGPVVQHIYELRNNGPSSFSKAMLHLQWPYKYNNNTLLYILHYDIDGPMNCTSDMEINPLRIKISSLQTTEKNDTVAGQGERDHLITKRDLALSEGDIHTLGCGVAQCLKIVCQVGRLDRGKSAILYVKSLLWTETFMNKENQNHSYSLKSSASFNVIEFPYKNLPIEDITNSTLVTTNVTWGIQPAPMPVPVWVIILAVLAGLLLLAVLVFVMYRMGFFKRVRPPQEEQEREQLQPHENGEGNSET
chain 2: GPNICTTRGVSSCQQCLAVSPMCAWCSDEALPLGSPRCDLKENLLKDNCAPESIEFPVSEARVLEDRPLSDKGSGDSSQVTQVSPQRIALRLRPDDSKNFSIQVRQVEDYPVDIYYLMDLSYSMKDDLWSIQNLGTKLATQMRKLTSNLRIGFGAFVDKPVSPYMYISPPEALENPCYDMKTTCLPMFGYKHVLTLTDQVTRFNEEVKKQSVSRNRDAPEGGFDAIMQATVCDEKIGWRNDASHLLVFTTDAKTHIALDGRLAGIVQPNDGQCHVGSDNHYSASTTMDYPSLGLMTEKLSQKNINLIFAVTENVVNLYQNYSELIPGTTVGVLSMDSSNVLQLIVDAYGKIRSKVELEVRDLPEELSLSFNATCLNNEVIPGLKSCMGLKIGDTVSFSIEAKVRGCPQEKEKSFTIKPVGFKDSLIVQVTFDCDCACQAQAEPNSHRCNNGNGTFECGVCRCGPGWLGSQCECSEEDYRPSQQDECSPREGQPVCSQRGECLCGQCVCHSSDFGKITGKYCECDDFSCVRYKGEMCSGHGQCSCGDCLCDSDWTGYYCNCTTRTDTCMSSNGLLCSGRGKCECGSCVCIQPGSYGDTCEKCPTCPDACTFKKECVECKKFDRGALHDENTCNRYCRDEIESVKELKDTGKDAVNCTYKNEDDCVVRFQYYEDSSGKSILYVVEEPECPKGPDILVVLLSVMGAILLIGLAALLIWKLLITIHDRKEFAKFEEERARAKWDTANNPLYKEATSTFTNITYRGT
B2: integrin αVβ5 on intact cells (receptor)
chain 1: B1 chain 1
chain 2: GLNICTSGSATSCEECLLIHPKCAWCSKEDFGSPRSITSRCDLRANLVKNGCGGEIESPASSFHVLRSLPLSSKGSGSAGWDVIQMTPQEIAVNLRPGDKTTFQLQVRQVEDYPVDLYYLMDLSLSMKDDLDNIRSLGTKLAEEMRKLTSNFRLGFGSFVDKDISPFSYTAPRYQTNPCIGYKLFPNCVPSFGFRHLLPLTDRVDSFNEEVRKQRVSRNRDAPEGGFDAVLQAAVCKEKIGWRKDALHLLVFTTDDVPHIALDGKLGGLVQPHDGQCHLNEANEYTASNQMDYPSLALLGEKLAENNINLIFAVTKNHYMLYKNFTALIPGTTVEILDGDSKNIIQLIINAYNSIRSKVELSVWDQPEDLNLFFTATCQDGVSYPGQRKCEGLKIGDTASFEVSLEARSCPSRHTEHVFALRPVGFRDSLEVGVTYNCTCGCSVGLEPNSARCNGSGTYVCGLCECSPGYLGTRCECQDGENQSVYQNLCREAEGKPLCSGRGDCSCNQCSCFESEFGKIYGPFCECDNFSCARNKGVLCSGHGECHCGECKCHAGYIGDNCNCSTDISTCRGRDGQICSERGHCLCGQCQCTEPGAFGEMCEKCPTCPDACSTKRDCVECLLLHSGKPDNQTCHSLCRDEVITWVDTIVKDDQEAVLCFYKTAKDCVMMFTYVELPSGKSNLTVLREPECGNTPNAMTILLAVVGSILLVGLALLAIWKLLVTIHDRREFAKFQSERSRARYEMASNPLYRKPISTHTVDFTFNKFNKSYNGTVD
B3: Biogen-αVβ1.5 Fab (Fab, V domains shown)
VH: EVQLVESGGGVVQPGRSLRLSCAASGFTFKYYGMHWVRQAPGKGLEWVASIWYDGSNKKYADSVKGRFTISRDNSKNTLYLQMNSLRAEDTAVYYCARGGPTRGDGTRVYYYGMDVWGQGTTVTVSS
VL: EIVMTQSPATLSVSPGERATLSCRASQSVSSNLAWYQQKPGQAPRLLIYSASTRATGIPARFSGSGSGTEFTLTISSLQSEDFAVYYCQQYYHHPFTFGGGTKVEIK

How the values were obtained:
IPI-αVβ5.9 [1] = assay: FACS; L15 medium
IPI-αVβ3.13 [2] = assay: FACS; L15 medium
IPI-αVβ5.9 [3] = assay: FACS; L15 + 1 mM Mn2+
IPI-αVβ3.13 [4] = assay: FACS; L15 + 1 mM Mn2+
[5] = biological target: B1; assay: FACS
[6] = biological target: integrin αVβ1 on intact cells (human, UniProt P06756 31-1048; P05556 21-798); assay: FACS
[7] = biological target: T1, integrin α5β1 on intact cells (human, UniProt P08648 42-1049; P05556 21-798); assay: FACS
[8] = biological target: T1, integrin α5β1 on intact cells; assay: FACS; remark: listed apart in the source

T1 sequence (P08648 42-1049, chain 1 of 2): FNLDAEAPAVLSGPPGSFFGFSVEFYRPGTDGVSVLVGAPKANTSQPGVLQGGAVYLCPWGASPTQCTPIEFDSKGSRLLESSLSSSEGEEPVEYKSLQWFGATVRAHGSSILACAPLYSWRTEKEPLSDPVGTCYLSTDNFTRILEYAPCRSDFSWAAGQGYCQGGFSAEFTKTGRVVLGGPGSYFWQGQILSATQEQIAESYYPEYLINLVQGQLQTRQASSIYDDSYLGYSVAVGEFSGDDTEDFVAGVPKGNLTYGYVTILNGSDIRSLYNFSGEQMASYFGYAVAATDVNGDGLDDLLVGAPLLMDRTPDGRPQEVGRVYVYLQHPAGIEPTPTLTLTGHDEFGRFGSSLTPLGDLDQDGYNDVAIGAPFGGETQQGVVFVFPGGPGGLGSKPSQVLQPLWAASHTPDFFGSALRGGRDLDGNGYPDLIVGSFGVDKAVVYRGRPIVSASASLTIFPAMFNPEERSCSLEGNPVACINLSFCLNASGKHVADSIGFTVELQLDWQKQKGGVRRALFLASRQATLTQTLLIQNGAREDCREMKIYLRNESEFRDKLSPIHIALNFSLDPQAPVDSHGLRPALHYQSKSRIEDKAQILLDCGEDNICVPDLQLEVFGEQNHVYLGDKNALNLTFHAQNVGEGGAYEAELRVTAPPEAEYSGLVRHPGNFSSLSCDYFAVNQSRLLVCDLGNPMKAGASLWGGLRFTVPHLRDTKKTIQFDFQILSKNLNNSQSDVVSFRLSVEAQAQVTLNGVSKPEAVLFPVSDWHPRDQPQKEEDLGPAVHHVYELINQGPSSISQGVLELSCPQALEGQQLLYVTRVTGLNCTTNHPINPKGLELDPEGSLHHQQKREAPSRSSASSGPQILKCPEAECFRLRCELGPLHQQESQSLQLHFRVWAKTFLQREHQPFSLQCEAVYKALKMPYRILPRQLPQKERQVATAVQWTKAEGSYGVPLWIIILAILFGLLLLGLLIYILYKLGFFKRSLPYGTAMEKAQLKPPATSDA
T1 sequence (P05556 21-798, chain 2 of 2): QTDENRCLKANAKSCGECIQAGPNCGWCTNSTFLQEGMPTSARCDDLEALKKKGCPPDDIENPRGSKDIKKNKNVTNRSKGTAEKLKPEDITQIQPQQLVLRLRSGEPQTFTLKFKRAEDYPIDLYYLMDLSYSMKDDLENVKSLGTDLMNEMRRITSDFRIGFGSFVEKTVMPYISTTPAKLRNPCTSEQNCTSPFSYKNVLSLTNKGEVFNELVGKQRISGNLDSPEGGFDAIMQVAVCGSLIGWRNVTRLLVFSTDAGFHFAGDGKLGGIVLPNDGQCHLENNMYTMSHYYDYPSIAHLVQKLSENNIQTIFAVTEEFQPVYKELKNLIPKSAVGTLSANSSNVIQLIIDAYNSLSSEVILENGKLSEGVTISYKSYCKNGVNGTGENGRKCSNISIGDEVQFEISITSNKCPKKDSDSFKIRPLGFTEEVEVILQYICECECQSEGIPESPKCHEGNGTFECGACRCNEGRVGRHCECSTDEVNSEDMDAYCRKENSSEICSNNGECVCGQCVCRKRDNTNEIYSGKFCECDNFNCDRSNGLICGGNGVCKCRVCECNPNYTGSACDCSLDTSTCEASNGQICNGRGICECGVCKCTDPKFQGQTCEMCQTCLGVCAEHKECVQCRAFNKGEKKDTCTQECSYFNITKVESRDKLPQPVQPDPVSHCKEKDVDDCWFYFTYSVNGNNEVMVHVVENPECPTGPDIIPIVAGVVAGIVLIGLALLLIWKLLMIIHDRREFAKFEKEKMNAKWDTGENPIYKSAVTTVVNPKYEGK
Chain of integrin αVβ1 on intact cells (P05556 21-798, one chain of several): as the sequence (P05556 21-798, chain 2 of 2) above

Binder: B1
- Kd (IPI-αVβ5.9 [1]): 10000 nM
- Kd (IPI-αVβ3.13 [2]): 56 nM
- Kd (IPI-αVβ5.9 [3]): 16000 nM
- Kd (IPI-αVβ3.13 [4]): 23 nM

Binder: B2
- Kd (IPI-αVβ5.9 [1]): 43 nM
- Kd (IPI-αVβ5.9 [3]): 24 nM
- Kd (IPI-αVβ3.13 [4]): 50000 nM

Binder: B3
- Kd [5]: 78000 nM
- Kd [6]: 24 nM

Binder: cyclo(RGD[dF]K) [cyclo[Arg-Gly-Asp-D-Phe-Lys] (cRGDfK)]
- Kd [7]: 86 nM

Binder: ACRGDGWCGK (disulfide 2-8 (inferred)) [cyclic-ACRGDGWCGK]
- Kd [8]: 3700 nM
